Results from publication PMC3365051, “Sequence-Specific Binding of Recombinant Zbed4 to DNA: Insights into Zbed4 Participation in Gene Transcription and Its Association with Other Proteins”.

Each binder was assayed against T1, Zbed4 (mouse (cDNA from mouse retinal RNA), UniProt Q80WQ9 1-1168) (assay: EMSA; 20 ug Zbed4, 0.5 nM oligo in 20 mM HEPES pH 7.5, 150 mM NaCl, 5 mM beta-mercaptoethanol, 5% glycerol, 0.5 mM ascorbic acid, 0.5 mM propyl gallate, 10 uM ZnSO4). Details: protein: recombinant; tags: C-terminal His8.
T1 sequence: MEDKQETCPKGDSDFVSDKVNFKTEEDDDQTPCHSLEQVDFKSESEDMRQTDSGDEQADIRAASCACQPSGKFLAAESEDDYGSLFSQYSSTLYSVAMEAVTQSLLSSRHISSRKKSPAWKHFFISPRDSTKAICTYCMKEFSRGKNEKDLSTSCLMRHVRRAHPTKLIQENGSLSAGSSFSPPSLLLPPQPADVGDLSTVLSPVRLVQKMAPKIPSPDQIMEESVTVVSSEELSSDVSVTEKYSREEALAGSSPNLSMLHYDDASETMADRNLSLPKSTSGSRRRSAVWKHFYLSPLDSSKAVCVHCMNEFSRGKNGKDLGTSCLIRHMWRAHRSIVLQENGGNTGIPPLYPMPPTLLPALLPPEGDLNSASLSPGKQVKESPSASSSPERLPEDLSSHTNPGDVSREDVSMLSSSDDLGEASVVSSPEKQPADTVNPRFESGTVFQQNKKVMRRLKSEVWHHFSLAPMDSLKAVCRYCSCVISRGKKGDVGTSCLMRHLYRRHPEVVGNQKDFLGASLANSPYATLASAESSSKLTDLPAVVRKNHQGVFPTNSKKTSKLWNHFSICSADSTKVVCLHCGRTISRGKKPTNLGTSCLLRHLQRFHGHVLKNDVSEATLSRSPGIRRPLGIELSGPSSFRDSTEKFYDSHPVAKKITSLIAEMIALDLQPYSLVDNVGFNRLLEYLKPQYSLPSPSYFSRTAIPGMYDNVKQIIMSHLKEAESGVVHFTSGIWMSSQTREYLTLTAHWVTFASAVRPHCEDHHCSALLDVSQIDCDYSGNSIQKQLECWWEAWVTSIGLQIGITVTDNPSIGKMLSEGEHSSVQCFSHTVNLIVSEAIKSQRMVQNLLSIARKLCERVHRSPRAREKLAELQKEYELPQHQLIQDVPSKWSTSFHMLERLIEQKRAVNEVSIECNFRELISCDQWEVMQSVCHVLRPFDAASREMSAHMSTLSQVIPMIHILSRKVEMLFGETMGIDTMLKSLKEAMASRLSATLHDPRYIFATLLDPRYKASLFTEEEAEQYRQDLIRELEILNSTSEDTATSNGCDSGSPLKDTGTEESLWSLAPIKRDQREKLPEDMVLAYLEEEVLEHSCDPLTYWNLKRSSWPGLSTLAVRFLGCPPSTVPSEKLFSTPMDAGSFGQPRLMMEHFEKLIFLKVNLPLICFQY
AAAAAAAAAAAAAAAAAAAA (ssDNA) [poly-A (A20)]: no binding. AAAAATGGGCGGAATAAAAA (ssDNA) [GC-box2]: no binding. UUUUUGGGGGGGGGGUUUUU (ssRNA) [poly-ribo-G]: binds. TTTTTTTTTTTTTTTTTTT (ssDNA) [poly-T (called 20-mer, 19 T printed)]: no binding. AAAAAGGGGCGGGGCAAAAA (ssDNA) [GC-box1]: binds. UUUUUCCCCCCCCCCUUUUU (ssRNA) [poly-ribo-C]: no binding.
